Experimental data taken from patent US5763571.

Molecular target: c-Ha-Ras bound to GTP (Ras-GTP) (Homo sapiens (Human)) (UniProt P01112)
Test: assay not given

fold reduction in binding affinity against Raf(1-149): 10 fold
Substance: Raf(1-137)
